Legend:
[1] = biological target: T1, MAGE-B2 peptide, S9T peptide on HLA-A*02:01 (human); assay: killing
T1 peptide: GVYDGEEHTV

[2] = biological target: T2, MAGE-B2 peptide, S9D peptide on HLA-A*02:01 (human); assay: killing
T2 peptide: GVYDGEEHDV

[3] = biological target: T3, MAGE-B2 peptide, E7M peptide on HLA-A*02:01 (human); assay: killing
T3 peptide: GVYDGEMHSV

[4] = biological target: T4, MAGE-B2 peptide, S9E peptide on HLA-A*02:01 (human); assay: killing
T4 peptide: GVYDGEEHEV

[5] = biological target: T5, MAGE-B2 peptide, S9Q peptide on HLA-A*02:01 (human); assay: killing
T5 peptide: GVYDGEEHQV

[6] = biological target: T6, MAGE-B2 peptide, E7N peptide on HLA-A*02:01 (human); assay: killing
T6 peptide: GVYDGENHSV

[7] = biological target: T7, MAGE-B2 peptide, E7C peptide on HLA-A*02:01 (human); assay: killing
T7 peptide: GVYDGECHSV

[8] = biological target: T8, MAGE-B2 peptide, V2M peptide on HLA-A*02:01 (human); assay: killing
T8 peptide: GMYDGEEHSV

[9] = biological target: T9, MAGE-B2 peptide, E7K peptide on HLA-A*02:01 (human); assay: killing
T9 peptide: GVYDGEKHSV

[10] = biological target: T10, MAGE-B2 peptide, V10I peptide on HLA-A*02:01 (human); assay: killing
T10 peptide: GVYDGEEHSI

[11] = biological target: T11, MAGE-B2 peptide, S9I peptide on HLA-A*02:01 (human); assay: killing
T11 peptide: GVYDGEEHIV

[12] = biological target: T12, MAGE-B2 peptide, H8N peptide on HLA-A*02:01 (human); assay: killing
T12 peptide: GVYDGEENSV

[13] = biological target: T13, MAGE-B2 peptide, V2T peptide on HLA-A*02:01 (human); assay: killing
T13 peptide: GTYDGEEHSV

[14] = biological target: T14, MAGE-B2 peptide, E7Q peptide on HLA-A*02:01 (human); assay: killing
T14 peptide: GVYDGEQHSV

[15] = biological target: T15, MAGE-B2 peptide, S9A peptide on HLA-A*02:01 (human); assay: killing
T15 peptide: GVYDGEEHAV

[16] = biological target: T16, MAGE-B2 peptide, H8Y peptide on HLA-A*02:01 (human); assay: killing
T16 peptide: GVYDGEEYSV

[17] = biological target: T17, MAGE-B2 peptide, S9W peptide on HLA-A*02:01 (human); assay: killing
T17 peptide: GVYDGEEHWV

[18] = biological target: T18, MAGE-B2 peptide, H8F peptide on HLA-A*02:01 (human); assay: killing
T18 peptide: GVYDGEEFSV

[19] = biological target: T19, MAGE-B2 peptide, H8W peptide on HLA-A*02:01 (human); assay: killing
T19 peptide: GVYDGEEWSV

[20] = biological target: T20, MAGE-B2 peptide, S9N peptide on HLA-A*02:01 (human); assay: killing
T20 peptide: GVYDGEEHNV

[21] = biological target: T21, MAGE-B2 peptide, V10A peptide on HLA-A*02:01 (human); assay: killing
T21 peptide: GVYDGEEHSA

[22] = biological target: T22, MAGE-B2 peptide, V10L peptide on HLA-A*02:01 (human); assay: killing
T22 peptide: GVYDGEEHSL

[23] = biological target: T23, MAGE-B2 peptide, E7D peptide on HLA-A*02:01 (human); assay: killing
T23 peptide: GVYDGEDHSV

[24] = biological target: T24, MAGE-B2 peptide, E6V peptide on HLA-A*02:01 (human); assay: killing
T24 peptide: GVYDGVEHSV

[25] = biological target: T25, MAGE-B2 peptide, V2I peptide on HLA-A*02:01 (human); assay: killing
T25 peptide: GIYDGEEHSV

[26] = biological target: T26, MAGE-B2 peptide, E7H peptide on HLA-A*02:01 (human); assay: killing
T26 peptide: GVYDGEHHSV

[27] = biological target: T27, MAGE-B2 peptide, E7L peptide on HLA-A*02:01 (human); assay: killing
T27 peptide: GVYDGELHSV

[28] = biological target: T28, MAGE-B2 peptide, Y3F peptide on HLA-A*02:01 (human); assay: killing
T28 peptide: GVFDGEEHSV

[29] = biological target: T29, MAGE-B2 peptide, D4C peptide on HLA-A*02:01 (human); assay: killing
T29 peptide: GVYCGEEHSV

[30] = biological target: T30, MAGE-B2 peptide, V2L peptide on HLA-A*02:01 (human); assay: killing
T30 peptide: GLYDGEEHSV

[31] = biological target: T31, MAGE-B2 peptide, E7Y peptide on HLA-A*02:01 (human); assay: killing
T31 peptide: GVYDGEYHSV

[32] = biological target: T32, MAGE-B2 peptide, S9C peptide on HLA-A*02:01 (human); assay: killing
T32 peptide: GVYDGEEHCV

[33] = biological target: T33, MAGE-B2 peptide, S9P peptide on HLA-A*02:01 (human); assay: killing
T33 peptide: GVYDGEEHPV

[34] = biological target: T34, MAGE-B2 peptide, D4N peptide on HLA-A*02:01 (human); assay: killing
T34 peptide: GVYNGEEHSV

[35] = biological target: T35, MAGE-B2 peptide, S9G peptide on HLA-A*02:01 (human); assay: killing
T35 peptide: GVYDGEEHGV

[36] = biological target: T36, MAGE-B2 peptide, S9V peptide on HLA-A*02:01 (human); assay: killing
T36 peptide: GVYDGEEHVV

[37] = biological target: T37, MAGE-B2 peptide on HLA-A*02:01 (human); assay: multimer staining
T37 peptide: GVYDGEEHSV

[38] = biological target: T38, MAGE-B2 peptide, H8I peptide on HLA-A*02:01 (human); assay: killing
T38 peptide: GVYDGEEISV

[39] = biological target: T39, MAGE-B2 peptide, S9M peptide on HLA-A*02:01 (human); assay: killing
T39 peptide: GVYDGEEHMV

[40] = biological target: T40, MAGE-B2 peptide, E6Q peptide on HLA-A*02:01 (human); assay: killing
T40 peptide: GVYDGQEHSV

[41] = biological target: T41, MAGE-B2 peptide, E7A peptide on HLA-A*02:01 (human); assay: killing
T41 peptide: GVYDGEAHSV

Measured: binding result

B1: TCR1 (TCR, V domains shown)
Valpha: KQEVTQIPAALSVPEGENLVLNCSFTDSAIYNLQWFRQDPGKGLTSLLLIQSSQREQTSGRLNASLDKSSGRSTLYIAASQPGDSATYLCAAMKTSYDKVIFGPGTSLSVIP
Vbeta: GEEVAQTPKHLVRGEGQKAKLYCAPIKGHSYVFWYQQVLKNEFKFLISFQNENVFDETGMPKERFSAKCLPNSPCSLEIQATKLEDSAVYFCASSQGQGGYGYTFGSGTRLTVV
not listed: [38] | [39] | [40] | [41]
recognises: all other assays above

B2: TCR3 (TCR, V domains shown)
Valpha: AQKVTQAQTEISVVEKEDVTLDCVYETRDTTYYLFWYKQPPSGELVFLIRRNSFDEQNEISGRYSWNFQKSTSSFNFTITASQVVDSAVYFCALSVLRMDSSYKLIFGSGTRLLVRP
Vbeta: NAGVTQTPKFRVLKTGQSMTLLCAQDMNHEYMYWYRQDPGMGLRLIHYSVGEGTTAKGEVPDGYNVSRLKKQNFLLGLESAAPSQTSVYFCASSLQGAGQPQHFGDGTRLSIL
recognises: all assays above

B3: TCR2 (TCR, V domains shown)
Valpha: QKEVEQNSGPLSVPEGAIASLNCTYSDRGSQSFFWYRQYSGKSPELIMSIYSNGDKEDGRFTAQLNKASQYVSLLIRDSQPSDSATYLCAVNIPFSNSGGYQKVTFGTGTKLQVIP
Vbeta: NAGVTQTPKFRVLKTGQSMTLLCAQDMNHEYMYWYRQDPGMGLRLIHYSVGEGTTAKGEVPDGYNVSRLKKQNFLLGLESAAPSQTSVYFCASRHPGQYNQPQHFGDGTRLSIL
not listed: [9]
recognises: all other assays above
